The values that follow are results of earlier work, collected in paper PMC8671138.

For this data set, the target named is CD47 (Homo sapiens) (UniProt Q08722).
UniProt Q08722, sequence (Q08722 19-323): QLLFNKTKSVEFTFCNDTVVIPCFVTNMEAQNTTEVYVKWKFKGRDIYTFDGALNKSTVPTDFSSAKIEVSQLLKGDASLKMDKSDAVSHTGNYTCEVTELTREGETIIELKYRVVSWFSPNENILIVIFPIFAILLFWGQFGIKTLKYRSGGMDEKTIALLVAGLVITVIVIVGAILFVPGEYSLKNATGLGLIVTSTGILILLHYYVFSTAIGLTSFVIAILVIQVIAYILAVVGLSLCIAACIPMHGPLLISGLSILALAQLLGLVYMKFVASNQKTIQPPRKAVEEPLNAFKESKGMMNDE

A word on the Kd: it is a measure of binding affinity in units of concentration. For the substance SIRPα (from UniProt P78324), the Kd was 2000 nM.
